# Source: patent publication US20200397913A1, “AXL-SPECIFIC ANTIBODY-DRUG CONJUGATES FOR CANCER TREATMENT” (GENMAB A/S, priority 2015, published 2020)
# Marks after values point to notes of the source that are not given here.
# Tests used:
# CV1664 tumors = test: Cervical cancer PDX model CV1664; type: in vivo, BALB/c nude mice
# Method: Inoculation of tumor fragments into BALB/c nude mice and randomization was performed as described in Example 21.
# ES0195 tumors = test: Esophageal cancer PDX model ES0195; type: in vivo, BALB/c nude mice; details: 20 mg/kg i.p. at day 0, 7 and 14
# Method: Tumor fragments from donor mice bearing patient-derived esophageal xenografts (ES0195) were used for inoculation into BALB/c nude mice. Each mouse was inoculated subcutaneously at the right flank with one tumor fragment (2-3 mm in diameter) and tumors were allowed to grow until the tumor volume was about 150 mm^3. […] The antibodies and ADCs were dosed intravenously (i.v.) at 4 mg/kg at day of randomization (day 0) and day 7. Paclitaxel was dosed intra-peritoneally (i.p.) at 20 mg/kg at day 0, 7, and 14. Tumor volumes (mm^3) were monitored twice weekly and were calculated from caliper (PLEXX) measurements as: 0.52×(length)×(width)^2.
# [1] = tested on: MDA-MB-231 and Calu-1 cells; test: Internalization of cell surface bound HuMab-AXL by flow cytometry; type: cell-based, human; details: 1 hour 4° C, then overnight 37° C versus 4° C
# Method: Internalization of cell surface bound HuMab-AXL antibodies to MDA-MB-231 and Calu-1 cells (human lung carcinoma cell line; ATCC, catalognumber HTB-54) was evaluated by flow cytometry. 50,000 cells were seeded in 96-well tissue culture plates and allowed to attach for 6 hrs at 37° C. Plates were incubated at 4° C. for 30 minutes before incubation with serial dilutions of AXL-antibodies (final concentration range 0.0032-10 μg/mL) at 4° C. for 1 hour. Subsequently, the medium was replaced by tissue culture medium without antibody and cells were incubated overnight (16-18 hours) at 37° C. or 4° C. […] Finally, cells were washed twice in PBS/0.1% BSA/0.02% azide, resuspended in 120 μL PBS/0.1% BSA/0.02% azide and analyzed on a FACS Cantoll (BD Biosciences).
# (§1) Binding curves were analyzed using non-linear regression (sigmoidal dose-response with variable slope) using GraphPad Prism V5.04 software (GraphPad Software, San Diego, Calif., USA).
# SKMEL147 tumors = test: SKMEL147 melanoma xenograft model; type: in vivo, NMRI nude mice; details: 4 mg/kg i.v. on day 12 and day 19 after tumor cell injection
# A431 cells = test: Antibody-dependent cell-mediated cytotoxicity (51Cr release); type: cell-based, human; details: concentrations up to 10 μg/mL
# Method: The ability of anti-AXL antibodies to induce ADCC of A431 epidermoid carcinoma cells was determined as explained below. As effector cells, peripheral blood mononuclear cells from healthy volunteers (UMC Utrecht, The Netherlands) were used.
# A431 cells were collected (5×10^6 cells) in culture medium (RPMI 1640 culture medium supplemented with 10% fetal calf serum (FSC)), to which 100 μCi ^51Cr (Chromium-51; Amersham Biosciences Europe GmbH, Roosendaal, The Netherlands) had been added, and the mixture was incubated in a 37° C. water bath for 1 hour (hr) while shaking. After washing of the cells (twice in PBS, 1200 rpm, 5 min), the cells were resuspended in RPMI1640/10% FSC and counted by trypan blue exclusion. Cells were diluted to a density of 1×10^5 cells/mL.
# Peripheral blood mononuclear cells (healthy volunteers, UMC Utrecht, Utrecht, The Netherlands) were isolated from 45 mL of freshly drawn heparin blood by Ficoll (Bio Whittaker; lymphocyte separation medium, cat 17-829E) according to the manufacturer's instructions. After resuspension of cells in RPMI1640/10% FSC, cells were counted by trypan blue exclusion and diluted to a density of 1×10^7 cells/mL.
# 50 μl of ^51Cr-labeled targets cells were pipetted into 96-well plates, and 50 μl of antibody were added, diluted in RPMI1640/10% FSC (3-fold dilutions at final concentrations range 0.01-10 μg/mL). Cells were incubated (room temperature (RT), 15 min), and 50 μl effector cells were added, resulting in an effector to target ratio of 100:1 (for determination of maximal lysis, 100 μl 5% Triton-X100 was added instead of effector cells; for determination of spontaneous lysis, 50 μL target cells and 100 μL RPMI1640/10% FSC were used). Cells were incubated overnight at 37° C. and 5% CO2. After spinning down cells (1200 rpm, 10 min), 70 μL of supernatant was harvested into micronic tubes, and counted in a gamma counter. The percentage specific lysis was calculated as follows:
# % specific lysis=(cpm sample−cpm target cells only)/(cpm maximal lysis−cpm target cells only),
# wherein cpm is counts per minute.
# human AXL = target: T1, human AXL (Homo sapiens, UniProt P30530); test: Flow cytometry binding to HEK293T cells transfected with full length human AXL; details: at least 3 experiments
# T1 construct: expression constructs for full length human AXL; expressed in transfected cells; host or cells: HEK293T
# [2] = target: T2, human AXL with a mouse ECD (Mus musculus, UniProt Q00993, A791T/A867T/C878S/D603E/D853E/E609A/F637Y/G606S/G869S/H824Y/L452V/L825P/L872Q/P881A/R785Q/R828P/S823G/S856P/S873P/T871A/V766A); test: Flow cytometry binding to HEK293T cells transfected with human AXL with mouse ECD; details: 0.0024-10 μg/mL
# T2 construct: aa 1-441); expressed in transfected cells; host or cells: HEK293T
# T2 sequence (Q00993 19-888 with the stated changes): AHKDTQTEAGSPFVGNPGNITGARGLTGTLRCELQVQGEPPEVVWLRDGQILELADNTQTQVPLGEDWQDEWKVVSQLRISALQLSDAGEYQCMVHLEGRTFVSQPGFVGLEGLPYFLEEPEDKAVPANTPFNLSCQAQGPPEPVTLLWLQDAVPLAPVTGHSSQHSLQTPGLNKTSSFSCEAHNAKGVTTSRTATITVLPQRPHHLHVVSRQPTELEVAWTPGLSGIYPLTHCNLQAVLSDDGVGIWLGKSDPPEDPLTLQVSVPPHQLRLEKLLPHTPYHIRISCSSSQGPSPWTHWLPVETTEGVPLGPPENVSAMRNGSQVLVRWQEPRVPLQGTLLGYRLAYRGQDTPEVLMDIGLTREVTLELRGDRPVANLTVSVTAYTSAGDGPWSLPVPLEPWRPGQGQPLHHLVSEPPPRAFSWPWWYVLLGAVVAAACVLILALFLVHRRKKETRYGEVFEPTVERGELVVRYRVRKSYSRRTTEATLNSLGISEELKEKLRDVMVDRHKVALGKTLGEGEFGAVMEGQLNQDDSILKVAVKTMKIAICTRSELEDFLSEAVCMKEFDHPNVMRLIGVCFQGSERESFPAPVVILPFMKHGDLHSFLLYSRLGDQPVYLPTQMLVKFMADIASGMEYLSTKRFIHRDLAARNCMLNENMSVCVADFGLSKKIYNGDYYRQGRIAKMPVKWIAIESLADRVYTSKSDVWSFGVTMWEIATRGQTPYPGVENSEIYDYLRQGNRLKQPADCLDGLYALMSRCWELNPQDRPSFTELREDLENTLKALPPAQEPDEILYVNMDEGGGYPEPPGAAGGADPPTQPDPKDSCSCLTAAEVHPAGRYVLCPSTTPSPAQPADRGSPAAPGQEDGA
# [3] = target: T3, human AXL with a cynomolgus monkey extracellular domain (ECD) (Homo sapiens, UniProt P30530, P441T/S191N/S285L/T105A/T112A/T125N/T443A); test: Flow cytometry binding to HEK293T cells transfected with human AXL with cynomolgus ECD; details: at least 3 experiments
# T3 construct: aa 1-447); expressed in transfected cells; host or cells: HEK293T
# [4] = target: T4, AXLECDHis (extracellular domain of human AXL) (Homo sapiens, UniProt P30530); test: Binding affinity by Bio-Layer Interferometry (Octet); details: soluble AXLECDHis, 30° C, 1:1 model
# T4 construct: the extracellular domain (ECD) of human AXL (aa 1-447) with a C-terminal His tag (AXLECDHis); His tag (C); made in house; host or cells: HEK-293F
# PAXF1657 tumors = test: PAXF1657 pancreas cancer PDX model; type: in vivo, NMRI nu/nu mice; details: dose not stated in the sentence (FIG. 10B, 10C)
# Method: Human pancreas tumor tissue was subcutaneously implanted in the left flank of 5-7 weeks old female NMRI nu/nu mice. […] At day of randomization (day 0), the 3 ADCs were dosed intravenously (i.v.) at either 4 mg/kg or 2 mg/kg, and the control group received a single dose of IgG1-b12 (4 mg/kg). Tumor volumes (mm^3) were monitored twice weekly and were calculated from caliper (PLEXX) measurements as: 0.52×(length)×(width)^2.
# AXL on A431 cells = target: T5, AXL on A431 cells (Homo sapiens, UniProt P30530); test: Antibody binding to A431 cells with or without Gas6 pre-incubation
# T5 construct: AXL-positive A431 cells were incubated; endogenous in cells; host or cells: A431
# [5] = target: Gas6 binding to AXL on A431 cells (Homo sapiens, UniProt P30530); test: Gas6 binding to A431 cells pre-incubated with AXL antibodies; set-up: endogenous in cells; host or cells: A431; details: pre-incubation with 10 μg/mL antibody; control antibody b12
# Method: Alternatively, A431 cells were pre-incubated with 10 μg/mL AXL antibodies (15 minutes, 4° C.) to assess if the AXL ligand Gas6 could still bind in presence of AXL antibodies. […] After washing three times in PBS/0.1% BSA/0.02% azide, cells were incubated with mouse anti-Gas6 IgG2a (R&D Systems; cat no. MAB885) at 4° C. for 30 min. After washing three times in PBS/0.1% BSA/0.02% azide, cells were incubated with FITC-labelled goat anti-mouse IgG (Dako, Heverlee, Belgium; cat no. F049702) at 4° C. for 30 min in the dark. Next, cells were washed twice in PBS/0.1% BSA/0.02% azide, resuspended in 120 μL PBS/0.1% BSA/0.02% azide and analyzed on a FACS Cantoll (BD Biosciences).
# as §1
# Therefore, binding of Gas6 to A431 cells that had been pre-incubated with 10 μg/mL AXL antibodies was tested as described in Example 2.
# [6] = target: T6, human AXL transiently expressed by HEK-293F cells (Homo sapiens, UniProt P30530); test: Homogeneous antigen specific screening assay (FMAT); details: binding to human AXL on HEK-293F cells
# T6 construct: HEK-293F cells transiently expressing full length human AXL; expressed in transfected cells; host or cells: HEK-293F
Molecule,anti-tumor activity (CV1664 tumors; 20 mg/kg intraperitoneally at day 0 and 7),anti-tumor activity (ES0195 tumors),internalization of membrane-bound antibody [1],anti-tumor activity (SKMEL147 tumors),anti-tumor activity (CV1664 tumors; 4 mg/kg at day 0 and 7),induction of ADCC (A431 cells),Binding EC50 human AXL Average (s.d.) (human AXL),binding to AXL with a mouse ECD [2],Binding EC50 cynomolgus AXL Average (s.d.) [3],Kdis [4],Kon [4],anti-tumor activity (PAXF1657 tumors),Antibody binding to A431 cells: EC50 w/o Gas6 mean (s.d.) (AXL on A431 cells; no Gas6 pre-incubation),Antibody binding to A431 cells: EC50 in presence of Gas6 mean (s.d.) (AXL on A431 cells; pre-incubation with 10 μg/mL Gas6),Gas6 binding: Maximal binding in presence of AXL antibodies (% of binding in presence of control antibody) [5],Maximal binding [6]
"CC(=O)O[C@H]1C(=O)[C@@]2(C)[C@H]([C@H](OC(=O)c3ccccc3)[C@]3(O)C[C@H](OC(=O)[C@H](O)[C@@H](NC(=O)c4ccccc4)c4ccccc4)C(C)=C1C3(C)C)[C@]1(OC(C)=O)CO[C@@H]1C[C@@H]2O [paclitaxel, reference compound]",induced partial tumor regression,tumor growth inhibition,–,–,–,–,–,–,–,–,–,–,–,–,–,–
"IgG1-AXL-107: human IgG1,κ anti-AXL antibody, VH SEQ ID NO:1, VL SEQ ID NO:2; Ig1 domain binding",–,–,internalize,did not show tumor growth inhibition,only induced minor inhibition of tumor growth,did not induce significant ADCC,–,–,–,–,–,–,–,–,–,–
"IgG1-AXL-726-M101L: point mutant of IgG1-AXL-726, VH SEQ ID NO:32, VL SEQ ID NO:33 (antibody, V domains shown, homo sapiens) VH: QVQLQQWGAGLLKPSETLSLTCAIDGGSFSGYYWSWIRQPPGKGLEWIGEISHSGRTNYNPSLKSRVTISIDTSKNQFSLKLSSVAAADTAVYYCARFITLIRGAIITHFDYWGQGALVTVSS VL: DIQMTQSPSSLSASVGDRVTITCRASQGISSWLAWYQQKPEKAPKSLIYAASSLQSGVPSRFSGSGSGTDFTLTISSLQPEDFATYYCQQYHSYPYTFGQGTKLEIK",–,–,internalize,–,–,did not induce significant ADCC,0.184 (0.117) μg/mL,not detectable,0.250 (0.066) μg/mL,6.9e-05 s⁻¹,210000 M⁻¹ s⁻¹,–,–,–,–,–
"IgG1-AXL-148: human IgG1,κ anti-AXL antibody, VH SEQ ID NO:5, VL SEQ ID NO:6; Ig2 domain binding (antibody, V domains shown, homo sapiens) VH: EVQLLESGGGLVQPGGSLRLSCAASGFTFSSYAMTWVRQAPGKGLEWVSAISISGGSTFYADSVKGRFTISRDNSKNTLYLQMNSLRAEDTAVYYCRGYSGYVYDAFDFWGQGTMVTVSS VL: DIQMTQSPSSLSASVGDRVTITCRASQGISNWLAWYQQKPEKAPKSLIYAASSLQSGVPSRFSGSGSGTDFTLTISSLQPEDFATYYCQQYNSYPLTFGGGTKVEIK",–,–,internalize,–,–,did not induce significant ADCC,0.094 (0.059) μg/mL,not detectable,0.152 (0.080) μg/mL,0.0044 s⁻¹,230000 M⁻¹ s⁻¹,did not result in anti-tumor activity,0.11 (0.13) μg/mL,0.20 (0.30) μg/mL,106%,3499 Arbitrary units
